Measurements published in paper PMC3797442, “Analysis of the role of Arabidopsis class I TCP genes AtTCP7, AtTCP8, AtTCP22, and AtTCP23 in leaf development”.

Tests used:
[1] = target: AtTCP7 (Arabidopsis thaliana, UniProt Q9FMX2 1-250); test: EMSA; LightShift Chemiluminescent EMSA Kit (Pierce), manufacturer's instructions; buffer, salt, pH and temperature not stated; conditions: protein: recombinant; tags: N-terminal GST (pDEST15); chain copies: 2; label: biotin (both strands); blunt
[2] = target: AtTCP22;AtTCP23 (Arabidopsis thaliana;Arabidopsis …, UniProt Q9C7G4;Q9LQF0 1-375;1-341, |); test: EMSA; heterodimer; LightShift Chemiluminescent EMSA Kit (Pierce), manufacturer's instructions; buffer, salt, pH and temperature not stated; conditions: protein: recombinant;recombinant; tags: N-terminal GST (pDEST15);N-terminal GST (pDEST15); copies: 1;1; label: biotin (both strands); blunt
[3] = target: AtTCP7;AtTCP22 (Arabidopsis thaliana;Arabidopsis …, UniProt Q9FMX2;Q9C7G4 1-250;1-375, |); test: as above; conditions: protein: recombinant;recombinant; tags: N-terminal GST (pDEST15);N-terminal GST (pDEST15); copies: 1;1; label: biotin (both strands); blunt
[4] = target: AtTCP7;AtTCP23 (Arabidopsis thaliana;Arabidopsis …, UniProt Q9FMX2;Q9LQF0 1-250;1-341, |); test: as above; conditions: protein: recombinant;recombinant; tags: N-terminal GST (pDEST15);N-terminal GST (pDEST15); copies: 1;1; label: biotin (both strands); blunt

Measured: binding result

Sequence of AtTCP7;AtTCP23 (Q9FMX2 whole entry, chain 1 of 2): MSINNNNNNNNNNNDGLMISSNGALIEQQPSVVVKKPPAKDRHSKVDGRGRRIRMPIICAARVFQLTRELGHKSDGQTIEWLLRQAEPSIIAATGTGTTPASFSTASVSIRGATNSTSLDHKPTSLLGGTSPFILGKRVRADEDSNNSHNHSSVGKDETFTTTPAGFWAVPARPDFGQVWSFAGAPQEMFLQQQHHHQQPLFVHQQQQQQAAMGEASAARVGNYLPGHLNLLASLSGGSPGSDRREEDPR
Sequence of AtTCP7;AtTCP23 (Q9LQF0 whole entry, chain 2 of 2): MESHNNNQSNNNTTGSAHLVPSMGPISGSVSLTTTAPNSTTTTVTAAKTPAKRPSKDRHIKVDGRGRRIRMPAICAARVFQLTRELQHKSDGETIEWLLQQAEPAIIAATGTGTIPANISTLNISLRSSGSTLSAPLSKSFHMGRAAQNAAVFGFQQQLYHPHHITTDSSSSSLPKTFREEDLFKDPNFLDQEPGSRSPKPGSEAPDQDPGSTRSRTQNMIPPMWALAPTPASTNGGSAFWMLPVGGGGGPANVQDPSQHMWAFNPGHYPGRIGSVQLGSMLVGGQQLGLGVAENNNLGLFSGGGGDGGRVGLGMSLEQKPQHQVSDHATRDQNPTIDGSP
Sequence of AtTCP7;AtTCP22 (Q9FMX2 whole entry, chain 1 of 2): as the sequence (Q9FMX2 whole entry, chain 1 of 2) above
Sequence of AtTCP7;AtTCP22 (Q9C7G4 whole entry, chain 2 of 2): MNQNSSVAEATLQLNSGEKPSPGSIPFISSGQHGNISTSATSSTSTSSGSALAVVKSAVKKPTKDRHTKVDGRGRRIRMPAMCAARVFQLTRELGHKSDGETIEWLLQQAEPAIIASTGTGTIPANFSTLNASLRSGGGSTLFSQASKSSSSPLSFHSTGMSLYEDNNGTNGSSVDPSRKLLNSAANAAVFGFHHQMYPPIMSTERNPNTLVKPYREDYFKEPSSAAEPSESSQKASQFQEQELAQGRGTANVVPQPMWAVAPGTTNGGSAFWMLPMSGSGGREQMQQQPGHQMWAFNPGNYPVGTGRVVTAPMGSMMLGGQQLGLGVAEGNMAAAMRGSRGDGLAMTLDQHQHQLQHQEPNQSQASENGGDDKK
Sequence of AtTCP7 (Q9FMX2 whole entry): as the sequence (Q9FMX2 whole entry, chain 1 of 2) above
Sequence of AtTCP22;AtTCP23 (Q9C7G4 whole entry, chain 1 of 2): as the sequence (Q9C7G4 whole entry, chain 2 of 2) above
Sequence of AtTCP22;AtTCP23 (Q9LQF0 whole entry, chain 2 of 2): as the sequence (Q9LQF0 whole entry, chain 2 of 2) above

B1: STM promoter K-box probe, 76 bp (dsDNA)
DNA 1: AACTATCACTATTTAGAATTTTCAATGTGGAAAAGGAAGCTGATTGTTGAAGCATAAATCCCGGGAGACCACTTTT
DNA 2: AAAAGTGGTCTCCCGGGATTTATGCTTCAACAATCAGCTTCCTTTTCCACATTGAAAATTCTAAATAGTGATAGTT
binds: [1] | [2] | [3] | [4]
